Results taken from US20110171312A1, “MODIFIED THERAPEUTIC PEPTIDES, METHODS OF THEIR PREPARATION AND USE” (Nektar Therapeutics, priority 2008, published 2011).
Like-named read-outs stand apart in the source and are kept apart here.

What was measured:
[1] = Quick release test of releasable PEG-insulin conjugate; type: physicochemical; conditions: 100 mM HEPES, pH 8.66, 50° C., approximately 24 hours; gel electrophoresis
Protocol: The pH was adjusted to 8.66 with 11.0 μL 2 M NaOH. Incubated solution at 50° C. for approximately 24 hours. […] This is slightly lower than the theoretical content of 22.5%. […] Peptide mapping was performed to determine which residue on insulin was modified. […] The purity of the conjugate was 91% mono-conjugate as determined by reverse phase HPLC.

[2] = 100 mM acetic acid
beagle dogs [3] = assay: PK/PD after IV dosing in dogs (Example 26); conditions: for CMAX: baseline corrected
Protocol: (§1) The compounds were prepared in accordance with Examples 16 and 18.
(§2) 6 Beagle dogs (˜7-10 kg) were anesthetized in both the IV and IH arms of this study for consistency. Dogs were then given 0.1 mg/kg acepromazine subcutaneously ˜15 minutes prior to 1-5% isoflurane mask induction. Once the appropriate plane of anesthesia was achieved, the pre-shaved neck of the dog was installed with an 18-20 G Abbocath intravenous catheter in the right or left jugular vein and pre-dose sampling was taken. This catheter was used for all blood samplings other than the later time points (16, 20 and 24 hour). Subsequent samples were taken from the cephalic veins.
The test and control articles were administered by bolus intravenous (IV) injection of a volume of 300 μl into the left cephalic vein using a 22 G 1 inch 1 mL tuberculin syringe.
(§3) Whole blood was used for the glucose measurements. EDTA-anticoagulated plasma was used for compound quantitation assays.
(§4) Quantitation of test and control articles for PK analysis was made with a radio-immuno assay (RIA) conducted at Linco Research, St-Charles, Mo. […] This antiserum was used as the basis of an RIA assay which was then qualified with respect to accuracy, precision, sensitivity, and dilutional linearity. The working range of this assay was 0.15-5 ng/ml. Samples exceeding the upper boundary of this range were diluted in a pool of charcoal-stripped canine plasma.

beagle dogs [4] = assay: PK/PD after IH (powder inhalation) dosing in dogs (Example 26); conditions: for Effect/mg Dosed: AUEC per mg of IH lung dose; for Effect (Glucose Suppression AUEC): lung dose 0.34, 0.6, 2 mg
Protocol: as §1, §2
The formulated control and test articles were delivered by inhalation (IH) via an endotracheal (ET) tube. Ventilator stroke volume was set empirically for each dog to achieve a Peak Mouth Pressure (PMP) of 20-25 cm H2O. A digital manometer (Dwyer Instruments, Michigan City, Ind.) was connected to the ET tube/“Y” connector to monitor PMP. Each blister pack (BP) was delivered with 2 full breathing cycles. No more than 3 BPs were administered during one apneic period. If required to achieve the target administered dose, a second apneic period was induced after an interval of 2 minutes of spontaneous breathing.
Total administered powder as well as estimated inhaled total lung dose were reported.
as §3, §4
To calculate the overall glucose suppression, glucose levels were normalized by the equation:
GlucoseSuppression(t)=PredoseGlucoseConcentration−Glucose(t)
The glucose suppression-time profiles were integrated using linear-trapezoidal rule to calculate the area under the effect curve (AUEC).

beagle dogs [5] = conditions: glucose clamp, powder inhalation (FIG. 13a)
Protocol: The glucose clamp technique involved the continuous infusion of a 50% glucose solution at a rate such that normal serum glucose values were maintained throughout the experiment (e.g., normal range is 80-100 mg/dl).
Glucagon was also infused to maintain normal serum physiologic concentrations. […] Blood was withdrawn from an indwelling catheter over a 10-hour period.

Sprague-Dawley rats [6] = assay: Dose determination and PK/PD after intratracheal instillation (Example 25); type: in vivo, rat; conditions: intratracheal
Protocol: A spectrometric measurement of compound concentration was also made.
Intratracheal Instillation (IT) was conducted as follows.
Sample Collection was performed as follows.
The glucose monitoring was conducted as follows.
The experimental protocol was modified for the analysis of the acetylated compounds. This resulted from the intent to use LC/MS-MS for the quantitation of compound concentrations in plasma. This analytical technique requires a larger volume of plasma to permit concentration of the sample and achieve the requisite increase in sensitivity. […] The protocol was therefore modified to increase the number of animals by two-fold and split the samples between these two cohorts.
To explore the data further, the PK profiles after IT doses were deconvoluted using IV PK parameters using the Wagner Nelson deconvolution procedure, to generate the cumulative absorption profile (FIG. 32).

[7] = 14.3/(14.3 + 0.2) * 100%
Protocol: Concentrations of collected samples were determined using UV spectroscopy, while the integrity analysis of the collected protein was evaluated by HPLC.

Sprague-Dawley rats [8] = conditions: rats, intravenous
Excerpt: The first phase established a dose of the compound required to achieve a target blood glucose reduction. This target blood glucose reduction was chosen to be the minimum reduction that is clearly recognizable as different from the resting blood glucose concentration.
The second phase examined the pharmacokinetics/pharmacodynamics of the molecule when administered to rats at the selected dose over an observation time sufficient for the glucose to return to baseline.
These experiments were conducted on male adult Sprague-Dawley rats of approximately 0.30-0.40 kg. Animals were obtained pre-cannulated with a jugular vein catheter (JVC) for blood sampling and, in the case of IV administration, and additional femoral vein catheter (FVC).
Intravenous administration of compounds was made via a femoral catheter in a volume of 300 μl.
Sample Collection was performed as follows. Blood samples of approximately 0.50 mL were collected from the JVC using a 1 mL syringe at each time point. A new syringe was used for each time point along with precautions to prevent contamination and carry-over.
The glucose monitoring was conducted as follows. Approximately 20 μL of whole blood was touched to the end of the glucose test strip of 2 Glucometer Elite glucose monitors for a duplicate determination of blood glucose concentrations. If there was a discrepancy of greater than 5 mg/dl, a third reading was taken.
The sample for compound quantitation in plasma, which served as basis for the PK analysis, was collected and processed as follows. The volume of blood remaining after the glucose measurement (˜480 μL) was anticoagulated with K2 EDTA and centrifuged to recover plasma. The plasma was collected and stored at −80° C. until analysis.

[9] = dogs, IV, insulin 0.027, 2K 0.058, 5K 0.084 mg/dog, mean
[10] = dog, in vivo, inhaled or intranasal

G2-PEG2-FMOC-NHS 40K insulin: Example 21: releasable mono-conjugate of insulin with G2-PEG2-FMOC-NHS 40K, site specific (B1)
release of insulin from the PEG [1]: Complete release

Insulin: unmodified human insulin used as control and starting material [reference compound]
solubility ([2]; pH 4): ~5 mg/mL | solubility ([2]; pH 4, listed as insulin): up to 5 mg/ml | solubility ([2]; pH 5): less than 1 mg/ml | AUC0-LAST (beagle dogs [3]; [9]): 1.822 ng·h/mL | CMAX (beagle dogs [3]; [9]): 9.1 ng/mL | CMAX (beagle dogs [3]; dogs, IV, insulin 0.027, 2K 0.058, 5K 0.084 mg/dog, mean, listed as INSULIN): 9.117 ng/mL | time of last quantifiable sample (beagle dogs [4]; dogs, IH, 0.34 mg/dog): 2 h | Effect/mg Dosed (beagle dogs [4]; dogs, IH): 156 | Effect (Glucose Suppression AUEC) (beagle dogs [4]; dogs, IH): 53 | AUC0-LAST (beagle dogs [4]; dogs, IH, lung dose insulin 0.34, 2K 0.60, 5K 2.0 mg/dog, mean): 1.538 ng·h/mL | CMAX (beagle dogs [4]; dogs, IH, lung dose insulin 0.34, 2K 0.60, 5K 2.0 mg/dog, mean, baseline corrected): 1.567 ng/mL | calculated IH bioavailability (beagle dogs [4]; dogs, powder after the ET tube, relative to IV): about 6% | duration for which glucose infusion was necessary (beagle dogs [5]): 300 min

di-N^αA1,N^εB29-(acetyl)-N^αB1-{3-[methoxy(ethoxy)5K]propionyl}insulin [PEG5000-B1 Di-acetylated insulin]
T1/2 (beagle dogs [3]; beagle, dog, in vivo, iv): 0.755 h | T1/2 (beagle dogs [3]; dog, in vivo, iv): about 0.76 HR | TMAX (beagle dogs [3]; dog, in vivo, iv): 4.8 min | central volume of distribution (Vc) (beagle dogs [3]; dog, in vivo, iv): about 115 mL/kg | overall glucose suppression versus Insulin (beagle dogs [3]; dogs, IV): overall glucose suppressions were similar in terms of maximum suppression and duration of action | Cmin (minimum blood glucose concentration) (Sprague-Dawley rats [6]; 520 μg/animal (Table 7)): 58 ± 11 mg/dL | Tmin (time to Cmin) (Sprague-Dawley rats [6]; 520 μg/animal (Table 7)): 7.1 ± 6.6 h | time up to which blood glucose is still suppressed (not back to baseline) (Sprague-Dawley rats [6]; selected dose): at least 12 hrs | % Collected as aerosol [7]: 98%^1 | T1/2 (beagle dogs [4]; dog, in vivo): about 15 HR | T1/2, range across dogs (beagle dogs [4]; dog, in vivo): 6.6 to 51 h | TMAX (beagle dogs [4]; dog, in vivo): about 2.5 HR | Tmax, range across dogs (beagle dogs [4]; dog, in vivo): 1 to 8 h | T1/2 (beagle dogs [4]; [10]): 15.045 h | calculated IH bioavailability (beagle dogs [4]; [10]): about 36% | duration of glucose suppression versus Insulin (beagle dogs [4]; dogs, IH): significantly increased | Effect/mg Dosed (beagle dogs [4]; dogs, IH): 179 | Effect (Glucose Suppression AUEC) (beagle dogs [4]; dogs, IH): 358 | dose adequate to reduce blood glucose to the target (40-60 mg/dl) (Sprague-Dawley rats [8]; insulin mass): 20 μg/rat | group mean Cmin (blood glucose nadir), definitive leg (Sprague-Dawley rats [8]; 20 μg/rat (5K di-acetylated), 10 μg/rat (2K di-acetylated)): 54 mg/dL
